Results published in article PMC5025710, “The N-terminal domain plays a crucial role in the structure of a full-length human mitochondrial Lon protease” (Scientific Reports, 2016).

Tests used:
[1] = target: proteolytically inactive human mitochondrial Lon protease mutant hLon S855A (human) (UniProt P36776); assay: cryo-EM structure; hLon S855A incubated with 1 mM AMP-PNP, 1 mg/ml diluted 5× in buffer B (20 mM HEPES pH 8.0, 150 mM NaCl, 5 mM MgCl2); map at 15 Å
[2] = target: proteolytically inactive human mitochondrial Lon protease mutant hLon S855A (human) (UniProt P36776); assay: cryo-EM structure; hLon S855A incubated with 1 mM ADP, 1 mg/ml diluted 5× in buffer B (20 mM HEPES pH 8.0, 150 mM NaCl, 5 mM MgCl2); map at 21 Å
[3] = target: the molecule itself; assay: cryo-EM 2D class averages; hLonΔ270, 1 mg/ml diluted 5× in buffer B; 2D class averages (Relion) compared with projections of five and six fitted 3M6A subunits; no 3D map
[4] = target: T1, hLonΔ270 mutant (Δ1–270), human Lon lacking its first 270 amino acids (human) (UniProt P36776)
T1 sequence: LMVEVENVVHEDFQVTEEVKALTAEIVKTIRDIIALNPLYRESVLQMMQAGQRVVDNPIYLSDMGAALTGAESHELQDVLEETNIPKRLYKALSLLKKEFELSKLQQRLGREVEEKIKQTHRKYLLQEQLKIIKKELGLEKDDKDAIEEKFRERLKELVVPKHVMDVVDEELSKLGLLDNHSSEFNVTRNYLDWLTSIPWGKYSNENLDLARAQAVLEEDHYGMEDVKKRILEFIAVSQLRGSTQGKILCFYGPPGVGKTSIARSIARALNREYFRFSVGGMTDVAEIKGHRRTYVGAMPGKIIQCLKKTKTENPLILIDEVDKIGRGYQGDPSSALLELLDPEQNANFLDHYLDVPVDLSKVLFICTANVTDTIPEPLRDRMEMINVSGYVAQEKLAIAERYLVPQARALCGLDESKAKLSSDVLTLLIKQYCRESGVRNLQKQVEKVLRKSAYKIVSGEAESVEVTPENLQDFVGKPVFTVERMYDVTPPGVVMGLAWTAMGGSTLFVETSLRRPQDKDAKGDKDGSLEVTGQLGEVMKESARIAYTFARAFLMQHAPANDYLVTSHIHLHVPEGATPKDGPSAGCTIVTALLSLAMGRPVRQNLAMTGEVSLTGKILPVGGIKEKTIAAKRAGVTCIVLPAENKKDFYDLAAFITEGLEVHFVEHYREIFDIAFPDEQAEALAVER

## proteolytically inactive human mitochondrial Lon protease mutant hLon S855A (from UniProt P36776 68-959) (enzyme)
[1]
  stoichiometry N: 6
[2]
  stoichiometry N: 6

B1: hLonΔ270 mutant (Δ1–270), human Lon lacking its first 270 amino acids (domain or fragment, UniProt P36776 271-959, looked up)
chain: T1 sequence
notes: primers Lon_271_FW and Lon_960_RV (to the stop codon); A few vector residues probably remain after PreScission cleavage (surmised from the primer); also called shortened hLon; source: in-fusion cloning into pOPINJ; not shown: 6×His-GST, N-terminal, cleaved
[3]
  stoichiometry N: 6

B2: β-casein (natural protein)
chain: RELEELNVPGEIVESLSSSEESITRINKKIEKFQSEEQQQTEDELQDKIHPFAQTQSLVYPFPGPIPNSLPQNIPPLTQTPVVVPPFLQPEVMGVSKVKEAMAPKHKEMPFPKYPVEPFTESQSLTLTDVENLHLPLPLLQSWMHQPHQPLPPTVMFPPQSVLSLSQSKVLPVPQKAVPYPQRDMPIQAFLLYQEPVLGPVRGPFPIIV
[4]
  stimulation of the ATPase activity of hLonΔ270 by β-casein (25 μg β-casein, 5 μg hLon, 37 °C): 2 fold
  stimulation of the peptidase activity of hLonΔ270 (glutaryl-Ala-Ala-Phe-MNA) by β-casein (25 μg β-casein, 5 μg hLon, 37 °C): 2 fold
